# ± gives the uncertainty stated by the source.
# Test: protein stability index of a GFP-peptide fusion (yeast GPS) (PSI 1-4); higher = more stable; sorted into four equal gates, so the index is relative within each strain
# Conditions: doa10∆
# In short: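 Yeast carrying a pooled library were grown to mid-log phase in leucine-free medium. Each library plasmid expresses Cherry and has a tiled 17-residue yeast protein peptide fused downstream of GFP. Cells were sorted into four equal gates by GFP/Cherry ratio, and plasmids from each gate were PCR-amplified, Illumina-sequenced and assigned to strains by barcode. Summing, across gates, the read frequency times the gate number gave each peptide's protein stability index.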
row,Sequence,protein stability index
1,TDLESLSSGESNEIKVT [SIR4],2.99 ± 0.13
2,TDNMSGRGLWNPSYPGM [YJL039C/NUP192],3.14 ± 0.26
3,TDQILQLLKEDSEKRNK [RRP45],3.12 ± 0.16
4,TDRQKKLLGVDMQSSVD [YLR018C/POM34],3.2 ± 0.057
5,TDYARAKNRILASKIKQ [RRI1],1.93 ± 0.097
6,TEDIREGDQAEVIFSFE [YMR129W/POM152],3.47 ± 0.087
7,TEEPDLAIADVETKLET [DSN1],3.2 ± 0.12
8,TEGCIGLSQTEAFGNIK [MCD1],2.61 ± 0.058
9,TEISPMAGSQFENGNIT [RRP45],2.6 ± 0.063
10,TEKQRKKQIAFPQRKYA [RPL35A],1.16 ± 0.062
11,TELASKDNAIYNGFIDI [YCS4],1.42 ± 0.072
12,TELLDEFIAAVNNPQEE [RPN10],3.01 ± 0.17
13,TENEIPNLIEKMVAKGL [BRR2],2.85 ± 0.17
14,TERHIQVGDGLEILIVT [PRE7],2.05 ± 0.067
15,TFDSSWNWAKQSLLSLY [FAS2],1.47 ± 0.066
16,TFSPSGKLGQIDYALTA [PRE8],2.61 ± 0.14
17,TFSQESGLMVILYTSKI [RRI2],2.78 ± 0.076
18,TFSSSISTYISTDELVG [POP8],3.02 ± 0.087
19,TFVHVTDLSGKETIARV [RPS14A],2.89 ± 0.069
20,TFVPTNSDKPRDVYVFD [DIS3],3 ± 0.062
21,TGAGVDVNTNANANANA [SNF11],3.12 ± 0.074
22,TGDVLLIQDLLHRLTPK [RPN1],3.12 ± 0.07
23,TGESWVKLTYNSPSSAL [YDL088C/ASM4],2.31 ± 0.058
24,TGHLFLKIIHTSVWAGQ [PRP8],1.31 ± 0.06
25,TGKDCVAIACDLRLGSQ [PUP3],1.38 ± 0.088

row,Sequence,protein stability index
1,TGLHFGRLSLRSLTAYA [QCR10],1.22 ± 0.044
2,TGLSQIPNRRFTLWWSP [PRP8],3.04 ± 0.058
3,TGLVSIRGKILTGTVVS [RPS11A],2.45 ± 0.052
4,TGPIEPKARQELPTQLA [RRP46],2.82 ± 0.072
5,TGPKQQEITTNLENHFK [SCL1],2.94 ± 0.044
6,THAVGNNCEDFVSRPDR [FAS1],3.16 ± 0.12
7,THNDIDSTAVALEEGLN [YJL039C/NUP192],2.78 ± 0.096
8,THNSYEKACQVLKYMLL [RPN6],2.18 ± 0.076
9,THSQTGTQQSNMYTSTQ [SIR4],3.03 ± 0.061
10,TICIELKTVLHNGRDKI [RGR1],1.55 ± 0.051
11,TIDNIDSENFSFEKLYE [YMR129W/POM152],3.3 ± 0.085
12,TIGKRRTTTNTTAEPKA [TAF14],3.07 ± 0.064
13,TISECNLYDDVKCWSKF [MED1],2.27 ± 0.093
14,TISQALLNAADRDALSG [PUP3],2.82 ± 0.12
15,TISSADFIQNVGRLWDQ [ECM29],2.98 ± 0.15
16,TIVQLCKKKEMSQYQST [YIL149C/MLP2],1.88 ± 0.063
17,TIVSNVEEKPGDRGALA [RPL2A],3.16 ± 0.095
18,TKDPDEQQLFEIFAFGN [CSN9],3.18 ± 0.13
19,TKEQYAAESKKYRQTKL [RPL5],3.17 ± 0.14
20,TKLHSGDYGEEEDADQE [SRB8],2.5 ± 0.16
21,TKNNTQASGITAGAAAN [SSN3],1.86 ± 0.094
22,TKSETKQENETMQPPYI [MED11],2.95 ± 0.051
23,TKSPAYPMMHQVRNQVF [RGR1],1.78 ± 0.047
24,TKYSDVLGFLQLFHNLI [YJL039C/NUP192],2.75 ± 0.063
25,TKYTDDMATGSNDTTAF [SRB8],3.04 ± 0.086

row,Sequence,protein stability index
1,TLDNIDDINKAKAVWEN [ARP9],3.14 ± 0.058
2,TLDNPLLVDKDANGVSL [YJL039C/NUP192],3.17 ± 0.057
3,TLDREYITLKATFLKDD [QCR2],1.38 ± 0.065
4,TLETIEIHPITFPPEVL [RRP43],1.9 ± 0.045
5,TLISRISSLFTITTILI [YML103C/NUP188],1.63 ± 0.068
6,TLKYICAECSSKLSLSR [RPC10],2.46 ± 0.063
7,TLNNIFRFDSIQRETLL [GRR1],2.88 ± 0.075
8,TLRTISFKGSPNERKAK [SNF2],3.19 ± 0.17
9,TMLITGQRPDRATTYEK [SIN4],3.06 ± 0.11
10,TMMANFEEWIKMATDNK [BRN1],3.19 ± 0.12
11,TNAFLDSLTRAVKDQQK [SNF2],2.46 ± 0.072
12,TNAPLRTLNIQPEVAVK [YIL149C/MLP2],2.08 ± 0.051
13,TNKENNIVDSSAAGNKA [YIL149C/MLP2],2.18 ± 0.061
14,TNLKNHPAYLFKGLETP [YLR018C/POM34],2.38 ± 0.055
15,TNNDSNNKNNSITTGND [MED2],2.69 ± 0.1
16,TNNGNDDNETENPNFWR [GRR1],2.74 ± 0.066
17,TNSEDKLSKVQLYEDLC [MED4],3.04 ± 0.083
18,TNSHYNNTNTDNVSGLT [SNF2],3.19 ± 0.062
19,TNVIAFAFWNLLVKFIK [YLR018C/POM34],1.42 ± 0.092
20,TNVNPSKNFNVILASSL [YML103C/NUP188],1.82 ± 0.05
21,TNWARTTFRNEYGKHDF [MED8],2.82 ± 0.097
22,TNYEMSYWQKSYFKNSV [LIN1],2.07 ± 0.038
23,TPKYRLVVRFTNKDIIC [RPL5],1.75 ± 0.078
24,TPLTFALPRGARTATVS [RPL14A],1.55 ± 0.063
25,TPMGGFVHYGEIKNDFI [RPL3],3.32 ± 0.093

row,Sequence,protein stability index
1,TPNVNVLVLHGDKDTRA [ISW2],2.63 ± 0.05
2,TPQSKGFVRNSFFSGLS [RPO31],3.01 ± 0.089
3,TPSLPIAPPVAPHDSEA [SNF5],2.6 ± 0.07
4,TPSSDQNPLPTRFEVEL [SOH1],3.35 ± 0.088
5,TPTHSDSHEDMKRRRLE [ROX3],2.89 ± 0.15
6,TQDVFLKDFNTERVVEI [FAS2],3.116 ± 0.026
7,TQQQPGAPGANARMPGM [SRP54],3.1 ± 0.12
8,TQQSHEQQPEQPQETEE [RPT4],2.9 ± 0.056
9,TQTEELKFMAASEVATH [PRP8],2.38 ± 0.084
10,TQTGLLQDLEEAKSFQD [RPC82],2.27 ± 0.25
11,TQYATSQKTKTIQSDLN [SMC2],2.21 ± 0.088
12,TRDEKDPKRLFEGNALI [RPS9A],3.55 ± 0.2
13,TRFPPAVFYTPKELGGL [PRP8],3.19 ± 0.076
14,TRGRSATIRETYEIICD [RRP43],2.59 ± 0.049
15,TRLLNIVMQLRKCCNHP [ISW2],2.65 ± 0.062
16,TRSIKEKWLLNQIPVTE [SRB6],1.13 ± 0.1
17,TRTVITDWDPQFNAITG [SMC2],2.96 ± 0.099
18,TRYMFQRDFRKHGAVHM [RPL21B],2.22 ± 0.099
19,TSAHEAIRADPAFKPTE [RPL5],3.24 ± 0.15
20,TSASQPFKFGKTSEKSE [YOR098C/NUP1],3.1 ± 0.14
21,TSCLQNNNQKIDDNYIV [SRB8],3.15 ± 0.072
22,TSDGALSVMCGCGTVKR [RPR2],2.43 ± 0.13
23,TSINHKIYRVGKGDDEA [RPL3],3.44 ± 0.071

# Same assay, conditions: pdr5∆
row,Sequence,protein stability index
1,TDLESLSSGESNEIKVT [SIR4],2.93 ± 0.11
2,TDNMSGRGLWNPSYPGM [YJL039C/NUP192],3.11 ± 0.18
3,TDQILQLLKEDSEKRNK [RRP45],3.3 ± 0.29
